Measurements published in the supplement of paper PMC9112550, “Optimization of the antimicrobial peptide Bac7 by deep mutational scanning” (BMC Biology, 2022).

test system: Escherichia coli TOP10; assay: shrunken log2 fold change of peptide-encoding DNA abundance (4.5 h post-induction vs induction); higher = less antimicrobial activity (less host growth inhibition); conditions: time post-induction: 4.5 h; library: site-saturation at positions 5, 18, 19, 20
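Also: peptides expressed intracellularly from a pBAD plasmid library in pooled LB shake-flask culture, induced with 0.3% L-arabinose, DNA abundance read by NGS, three biological replicates, DESeq2 with apeglm shrinkage.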

Sequence | shrunken log2 fold change
RRIRSRPPRLPRPRPRPPKSPRP | 0.271
RRIRSRPPRLPRPRPRPPKYPRP | -0.164
RRIRSRPPRLPRPRPRPPLCPRP | 0.357
RRIRSRPPRLPRPRPRPPLFPRP | 0.257
RRIRSRPPRLPRPRPRPPLLPRP | 0.0398
RRIRSRPPRLPRPRPRPPMFPRP | 0.0179
RRIRSRPPRLPRPRPRPPMPPRP | 0.486
RRIRSRPPRLPRPRPRPPPSPRP | 0.785
RRIRSRPPRLPRPRPRPPQVPRP | -0.0457
RRIRSRPPRLPRPRPRPPQWPRP | 0.504
RRIRSRPPRLPRPRPRPPSVPRP | 0.279
RRIRSRPPRLPRPRPRPPTNPRP | 0.298
RRIRSRPPRLPRPRPRPPWDPRP | 0.409
RRIRSRPPRLPRPRPRPPWHPRP | 0.0809
RRIRSRPPRLPRPRPRPPWKPRP | -0.0556
RRIRSRPPRLPRPRPRPPYPPRP | 0.0516
RRIRSRPPRLPRPRPRPQAEPRP | -0.0131
RRIRSRPPRLPRPRPRPQAVPRP | 0.197
RRIRSRPPRLPRPRPRPQCDPRP | -0.193
RRIRSRPPRLPRPRPRPQEQPRP | 0.0984
RRIRSRPPRLPRPRPRPQFYPRP | -0.769
RRIRSRPPRLPRPRPRPQIFPRP | 0.0933
RRIRSRPPRLPRPRPRPQIMPRP | 1.11
RRIRSRPPRLPRPRPRPQKDPRP | -0.323
RRIRSRPPRLPRPRPRPQLRPRP | 0.123

Sequence | shrunken log2 fold change
RRIRSRPPRLPRPRPRPQMNPRP | -0.227
RRIRSRPPRLPRPRPRPQMWPRP | 0.0996
RRIRSRPPRLPRPRPRPQPSPRP | 0.296
RRIRSRPPRLPRPRPRPQQEPRP | -0.0806
RRIRSRPPRLPRPRPRPQRGPRP | 0.274
RRIRSRPPRLPRPRPRPQSEPRP | -0.0306
RRIRSRPPRLPRPRPRPQSGPRP | -0.101
RRIRSRPPRLPRPRPRPQTEPRP | -0.0463
RRIRSRPPRLPRPRPRPQYWPRP | -0.397
RRIRSRPPRLPRPRPRPRAEPRP | 0.492
RRIRSRPPRLPRPRPRPRFDPRP | 0.248
RRIRSRPPRLPRPRPRPRFPPRP | 0.198
RRIRSRPPRLPRPRPRPRGPPRP | 0.568
RRIRSRPPRLPRPRPRPRHGPRP | 0.196
RRIRSRPPRLPRPRPRPRHSPRP | -0.356
RRIRSRPPRLPRPRPRPRIGPRP | 0.395
RRIRSRPPRLPRPRPRPRINPRP | -0.301
RRIRSRPPRLPRPRPRPRKIPRP | 0.12
RRIRSRPPRLPRPRPRPRLTPRP | 0.0483
RRIRSRPPRLPRPRPRPRMSPRP | 0.0167
RRIRSRPPRLPRPRPRPRMTPRP | 0.251
RRIRSRPPRLPRPRPRPRNQPRP | 0.205
RRIRSRPPRLPRPRPRPRNTPRP | -0.411
RRIRSRPPRLPRPRPRPRPMPRP | 0.498
RRIRSRPPRLPRPRPRPRPSPRP | 0.439

Sequence | shrunken log2 fold change
RRIRSRPPRLPRPRPRPRRWPRP | 0.556
RRIRSRPPRLPRPRPRPRSDPRP | 0.223
RRIRSRPPRLPRPRPRPRSPPRP | 0.363
RRIRSRPPRLPRPRPRPRWAPRP | 0.158
RRIRSRPPRLPRPRPRPRWHPRP | 0.111
RRIRSRPPRLPRPRPRPRYNPRP | -0.479
RRIRSRPPRLPRPRPRPRYTPRP | -0.145
RRIRSRPPRLPRPRPRPSCFPRP | -0.197
RRIRSRPPRLPRPRPRPSEAPRP | 0.121
RRIRSRPPRLPRPRPRPSEPPRP | -0.167
RRIRSRPPRLPRPRPRPSEYPRP | -0.306
RRIRSRPPRLPRPRPRPSFEPRP | 0.0257
RRIRSRPPRLPRPRPRPSFGPRP | 0.176
RRIRSRPPRLPRPRPRPSFKPRP | -0.542
RRIRSRPPRLPRPRPRPSFVPRP | -0.705
RRIRSRPPRLPRPRPRPSKNPRP | -0.306
RRIRSRPPRLPRPRPRPSLMPRP | -0.201
RRIRSRPPRLPRPRPRPSNKPRP | -0.413
RRIRSRPPRLPRPRPRPSNNPRP | -0.66
RRIRSRPPRLPRPRPRPSPQPRP | -0.108
RRIRSRPPRLPRPRPRPSQDPRP | -0.296
RRIRSRPPRLPRPRPRPSQWPRP | -0.176
RRIRSRPPRLPRPRPRPSRCPRP | -0.134
RRIRSRPPRLPRPRPRPSRGPRP | 0.483
RRIRSRPPRLPRPRPRPSRRPRP | 0.208

Sequence | shrunken log2 fold change
RRIRSRPPRLPRPRPRPSSMPRP | -0.422
RRIRSRPPRLPRPRPRPSSRPRP | -0.288
RRIRSRPPRLPRPRPRPSSVPRP | -0.354
RRIRSRPPRLPRPRPRPSVGPRP | 0.0671
RRIRSRPPRLPRPRPRPSVQPRP | -0.0563
RRIRSRPPRLPRPRPRPSVYPRP | -0.81
RRIRSRPPRLPRPRPRPSWDPRP | 0.364
RRIRSRPPRLPRPRPRPSYIPRP | -1.48
RRIRSRPPRLPRPRPRPSYLPRP | -0.707
RRIRSRPPRLPRPRPRPTACPRP | 0.249
RRIRSRPPRLPRPRPRPTAFPRP | 0.534
RRIRSRPPRLPRPRPRPTCEPRP | 0.228
RRIRSRPPRLPRPRPRPTDGPRP | -0.115
RRIRSRPPRLPRPRPRPTFCPRP | 0.155
RRIRSRPPRLPRPRPRPTFTPRP | -0.269
RRIRSRPPRLPRPRPRPTGLPRP | 0.127
RRIRSRPPRLPRPRPRPTGNPRP | -0.275
RRIRSRPPRLPRPRPRPTHLPRP | 0.135
RRIRSRPPRLPRPRPRPTKGPRP | -0.0226
RRIRSRPPRLPRPRPRPTKIPRP | 0.00311
RRIRSRPPRLPRPRPRPTKQPRP | 0.129
RRIRSRPPRLPRPRPRPTMKPRP | -0.128
RRIRSRPPRLPRPRPRPTMNPRP | -0.225
RRIRSRPPRLPRPRPRPTNWPRP | 0.0446
RRIRSRPPRLPRPRPRPTPKPRP | 0.697

Sequence | shrunken log2 fold change
RRIRSRPPRLPRPRPRPTPRPRP | 0.843
RRIRSRPPRLPRPRPRPTPVPRP | 0.381
RRIRSRPPRLPRPRPRPTQGPRP | 0.36
RRIRSRPPRLPRPRPRPTSGPRP | 0.194
RRIRSRPPRLPRPRPRPTTVPRP | 0.14
RRIRSRPPRLPRPRPRPTTWPRP | 0.053
RRIRSRPPRLPRPRPRPTYPPRP | -0.0945
RRIRSRPPRLPRPRPRPTYWPRP | -0.123
RRIRSRPPRLPRPRPRPVAKPRP | 0.116
RRIRSRPPRLPRPRPRPVALPRP | -0.0772
RRIRSRPPRLPRPRPRPVCIPRP | -0.414
RRIRSRPPRLPRPRPRPVDPPRP | 0.00726
RRIRSRPPRLPRPRPRPVFGPRP | 0.0263
RRIRSRPPRLPRPRPRPVGKPRP | -0.0806
RRIRSRPPRLPRPRPRPVHNPRP | 0.0673
RRIRSRPPRLPRPRPRPVIDPRP | -0.26
RRIRSRPPRLPRPRPRPVLKPRP | -0.0386
RRIRSRPPRLPRPRPRPVNSPRP | -0.365
RRIRSRPPRLPRPRPRPVPNPRP | 0.105
RRIRSRPPRLPRPRPRPVPQPRP | 0.0741
RRIRSRPPRLPRPRPRPVPRPRP | 0.427
RRIRSRPPRLPRPRPRPVPSPRP | 0.391
RRIRSRPPRLPRPRPRPVQCPRP | -0.102
RRIRSRPPRLPRPRPRPVQFPRP | 0.11
RRIRSRPPRLPRPRPRPVTAPRP | -0.0769

Sequence | shrunken log2 fold change
RRIRSRPPRLPRPRPRPVTHPRP | -0.152
RRIRSRPPRLPRPRPRPVTLPRP | -0.167
RRIRSRPPRLPRPRPRPVVFPRP | 0.11
RRIRSRPPRLPRPRPRPVVHPRP | -0.126
RRIRSRPPRLPRPRPRPVWRPRP | 0.33
RRIRSRPPRLPRPRPRPVWTPRP | 0.241
RRIRSRPPRLPRPRPRPVYIPRP | -0.124
RRIRSRPPRLPRPRPRPWACPRP | 0.0189
RRIRSRPPRLPRPRPRPWAGPRP | -0.255
RRIRSRPPRLPRPRPRPWAQPRP | -0.0414
RRIRSRPPRLPRPRPRPWCNPRP | -0.116
RRIRSRPPRLPRPRPRPWDKPRP | -0.252
RRIRSRPPRLPRPRPRPWDMPRP | -0.254
RRIRSRPPRLPRPRPRPWEYPRP | -0.0607
RRIRSRPPRLPRPRPRPWFCPRP | -0.439
RRIRSRPPRLPRPRPRPWFMPRP | -0.86
RRIRSRPPRLPRPRPRPWGCPRP | 0.032
RRIRSRPPRLPRPRPRPWGHPRP | 0.109
RRIRSRPPRLPRPRPRPWHWPRP | 0.211
RRIRSRPPRLPRPRPRPWIEPRP | -0.0567
RRIRSRPPRLPRPRPRPWLQPRP | -0.0695
RRIRSRPPRLPRPRPRPWLSPRP | -0.00679
RRIRSRPPRLPRPRPRPWMNPRP | -0.267
RRIRSRPPRLPRPRPRPWNLPRP | -1.05
RRIRSRPPRLPRPRPRPWPWPRP | 0.0913
